Data on two molecules can be found in patent US20070202051A1, “Aerosols for sinunasal drug delivery” (Pari GmbH, priority 2006, published 2007).

Data set [1] can be described thus: Physicochemical properties of the liquid test formulations.
Data set [2] is described as follows: Aerosol droplet size (mass median diameter, geometric standard deviation) by laser diffraction. The format is physicochemical. The following applies: aerosol generator of Example 5 (LC Sprint Junior-like + PARI SINUS); Example 9.
For data set [3] the following is noted: at 25° C.; cited from earlier work.

In the case of DNAse, in data set [1], the “dynamic viscosity of the solution” value worked out at 0.98 mPa·s, the osmolality of the solution turned out to be 285 mOsm/kg, the “pH of the solution” value was found to be 6.5 and the “surface tension of the solution” value was 72.1 mN/m. The mass median diameter of the aerosol in data set [2] stood at 3.19 µm.
For `OC[C@H]1O[C@@H]2O[C@H]3[C@H](O)[C@@H](O)[C@@H](O[C@H]4[C@H](O)[C@@H](O)[C@@H](O[C@H]5[C@H](O)[C@@H](O)[C@@H](O[C@H]6[C@H](O)[C@@H](O)[C@@H](O[C@H]7[C@H](O)[C@@H](O)[C@@H](O[C@H]1[C@H](O)[C@H]2O)O[C@@H]7CO)O[C@@H]6CO)O[C@@H]5CO)O[C@@H]4CO)O[C@@H]3CO` [α-cyclodextrin], the aqueous solubility result in data set [3] is listed as “about 145 mg/mL”.
